Test results published in patent publication US20210283168A1, “BETA GLUCAN AND CD40 AGONIST COMBINATION IMMUNOTHERAPY” (HiberCell, Inc., priority 2018, published 2021).
Entries after “also recorded” stand apart in the source; their conditions may differ.

B1: ADC-1013 (antibody, chains of the INN, looked up, V domains shown)
VH: EVQLLESGGGLVQPGGSLRLSCAASGFTFSTYGMHWVRQAPGKGLEWLSYISGGSSYIFYADSVRGRFTISRDNSENALYLQMNSLRAEDTAVYYCARILRGGSGMDLWGQGTLVTVSS
VL: QSVLTQPPSASGTPGQRVTISCTGSSSNIGAGYNVYWYQQLPGTAPKLLIYGNINRPSGVPDRFSGSKSGTSASLAISGLRSEDEADYYCAAWDKSISGLVFGGGTKLTVL

Tests used:
[1] = test system: KPC-derived PDAC cell line (7940B, P9); test: subcutaneous KPC-derived PDAC tumor model: tumor growth and overall survival; settings: for anti-tumor activity / impact on tumor growth (in words): mouse, in vivo
[2] = target: CD40 ligand interaction with CD40 (Homo sapiens, UniProt P25942); settings: cited from earlier work
[3] = target: T1, CD40 (Homo sapiens, UniProt P25942); settings: cited from earlier work; for dependence on crosslinking for activity: CD40 stimulation
[4] = target: T1, CD40; settings: binding to CD40; ADC-1013: even under acidic conditions (pH 5.4); read-out: binding affinity (Kd); cited from earlier work
[5] = test system: FcR; settings: cited from earlier work
[6] = test system: B cell; settings: cited from earlier work
[7] = test system: B cell lymphoma lines; settings: cited from earlier work
[8] = target: FcgRIIIa (Homo sapiens, UniProt P08637); settings: non-fucosylated, derived from dacetuzumab; cited from earlier work
[9] = intravenous infusion, more than 400 human subjects; cited from earlier work

T1 sequence (P25942 21-277): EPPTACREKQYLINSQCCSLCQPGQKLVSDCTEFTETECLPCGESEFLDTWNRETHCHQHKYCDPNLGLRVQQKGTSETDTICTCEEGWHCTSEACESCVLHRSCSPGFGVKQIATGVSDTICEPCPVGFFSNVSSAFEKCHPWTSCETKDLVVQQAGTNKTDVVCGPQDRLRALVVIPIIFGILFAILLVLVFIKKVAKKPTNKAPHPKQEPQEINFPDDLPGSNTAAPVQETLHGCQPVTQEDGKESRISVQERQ
Chain of CD40 ligand interaction with CD40 (P25942 21-277): as above
Chain of FcgRIIIa (P08637 17-254): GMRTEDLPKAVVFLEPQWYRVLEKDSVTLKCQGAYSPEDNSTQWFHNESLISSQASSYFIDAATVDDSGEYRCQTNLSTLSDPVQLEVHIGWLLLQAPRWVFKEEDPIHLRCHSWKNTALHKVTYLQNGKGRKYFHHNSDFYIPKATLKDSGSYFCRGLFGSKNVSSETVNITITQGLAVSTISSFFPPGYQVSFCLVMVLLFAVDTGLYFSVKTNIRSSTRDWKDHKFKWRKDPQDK

Molecule | anti-tumor activity / impact on tumor growth (in words) [1] | ability to block CD40 ligand binding [2] | dependence on crosslinking for activity [3] | Kd [4] [nM] | agonist activity [3] | other results
Nc1ccn([C@@H]2O[C@H](CO)[C@@H](O)C2(F)F)c(=O)n1 [Gemcitabine, reference compound] | no significant impact on tumor growth |  |  |  |  | 
CP-870,893: anti-CD40 IgG2 antibody (Pfizer and VLST) |  | does not block CD40 ligand interaction with CD40 | can mediate CD40 stimulation in the absence of cross-linking | 0.348 |  | FcR binding [5]: poor
Dacetuzumab: humanized IgG1 antibody recognizing CD40 (Seattle Genetics) |  | enhances CD40 ligand binding to CD40 |  | 1 | partial agonist | activity in stimulating B cell proliferation [6]: weak activity; anti-proliferative and pro-apoptotic properties against B cell lymphoma lines [7]: potent anti-proliferative and pro-apoptotic properties
SEA-CD40: non-fucosylated humanized IgG1 anti-CD40 antibody derived from dacetuzumab (Seattle Genetics) |  |  |  | 1 | improved agonist activity | binding to FcgRIIIa [8]: enhanced binding
β(1,6)-[poly-(1,3)-D-glucopyranosyl]-poly-β(1,3)-D-glucopyranose [IMPRIME PGG] | limited activity as monotherapy; also recorded: minimal activity |  |  |  |  | delay in tumor outgrowth / anti-tumor activity, previous experiment ([1]; previous experiment (data not shown)): 3 of 9; delay in tumor outgrowth (mice with delayed tumor growth) ([1]; single dose day 0: FGK45 0.1 mg i.p., IMPRIME PGG 1.2 mg i.v., gemcitabine 120 mg/kg day -2): 1 of 10; safety of systemic administration [9]: administered safely
B1 |  |  | activity dependent on FcR binding and crosslinking | 0.01 |  | 
